We go through three substances from patent US20120220489A1.

Test [1] concerns the target ERK2 (p42), human, Biosource PHO 0104 (human) (UniProt P28482). As to the kind of experiment: RPA, competition: +free H3 peptide 1000 nM.
The target in test [2] is ERK1 (p44) active (GST tagged), human, Invitrogen PV 3311 (human) (UniProt P27361). As to the kind of experiment: RPA, competition: +free H3 peptide 1000 nM.
Test [3] has as its target ERK1 (p44) inactive (GST tagged), human, Invitrogen PV 3312 (human) (UniProt P27361). As to the kind of experiment: RPA, competition: +free H3 peptide 1000 nM.
For test [4], the target named is pRb-BSA 1x peptide-protein conjugate (bovine). As to the kind of experiment: RPA, competition: +free H3 peptide 1000 nM.
Sequence of pRb-BSA 1x peptide-protein conjugate (bovine) (P02769 25-607 limits assumed): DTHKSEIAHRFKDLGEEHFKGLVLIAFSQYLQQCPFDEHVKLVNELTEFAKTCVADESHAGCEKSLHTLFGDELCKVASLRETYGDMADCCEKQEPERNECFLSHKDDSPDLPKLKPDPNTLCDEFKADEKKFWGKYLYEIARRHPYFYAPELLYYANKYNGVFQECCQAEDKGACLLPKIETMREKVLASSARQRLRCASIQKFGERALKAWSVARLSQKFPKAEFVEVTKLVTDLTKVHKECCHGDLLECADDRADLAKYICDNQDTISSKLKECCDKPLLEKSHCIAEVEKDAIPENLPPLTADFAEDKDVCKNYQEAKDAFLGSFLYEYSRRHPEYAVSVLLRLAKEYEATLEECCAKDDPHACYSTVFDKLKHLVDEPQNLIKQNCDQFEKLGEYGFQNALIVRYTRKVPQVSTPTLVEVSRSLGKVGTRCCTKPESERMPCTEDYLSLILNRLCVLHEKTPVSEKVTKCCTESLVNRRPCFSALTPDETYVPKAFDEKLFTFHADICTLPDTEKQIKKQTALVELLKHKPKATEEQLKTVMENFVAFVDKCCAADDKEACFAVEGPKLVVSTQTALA
The target in test [5] is ERK1 (p42) active (phospho), human, Active Motif 31 152 (human) (UniProt P27361). As to the kind of experiment: RPA, competition: +free H3 peptide 1000 nM.
Test [6] concerns the target Histone H3 recombinant protein, human, Upstate 14-494 (human) (UniProt P68431). As to the kind of experiment: RPA, competition: +free H3 peptide 1000 nM.
Test [7] addresses pErk1/2-BSA 2.7x peptide-protein conjugate (human; bovine). As to the kind of experiment: RPA, competition: +free H3 peptide 1000 nM.
The target in test [8] is Erk1-BSA 2.7x peptide-protein conjugate (human; bovine). As to the kind of experiment: RPA, competition: +free H3 peptide 1000 nM.
Sequence of Erk1-BSA 2.7x peptide-protein conjugate (human; bovine) (peptide, as listed by the source limits assumed, chain 1 of 2): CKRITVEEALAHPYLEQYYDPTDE
Sequence of Erk1-BSA 2.7x peptide-protein conjugate (human; bovine) (P02769 25-607 limits assumed, chain 2 of 2): as the sequence (P02769 25-607 limits assumed) above
The target in test [9] is Histone H3-BSA 2.7x peptide-protein conjugate (bovine). As to the kind of experiment: RPA, competition: +free H3 peptide 1000 nM.
Sequence of Histone H3-BSA 2.7x peptide-protein conjugate (bovine) (P02769 25-607 limits assumed): as above
Test [10] deals with Histone H3 recombinant protein, calf, Roche 11 034 758 001 (calf) (UniProt P68432). As to the kind of experiment: RPA, competition: +free H3 peptide 1000 nM.
Test [11] deals with pRb recombinant protein, human, Active Motif 31 128 (human) (UniProt P06400). As to the kind of experiment: RPA, competition: +free H3 peptide 1000 nM.
Sequence of UniProt P06400 (P06400 whole entry): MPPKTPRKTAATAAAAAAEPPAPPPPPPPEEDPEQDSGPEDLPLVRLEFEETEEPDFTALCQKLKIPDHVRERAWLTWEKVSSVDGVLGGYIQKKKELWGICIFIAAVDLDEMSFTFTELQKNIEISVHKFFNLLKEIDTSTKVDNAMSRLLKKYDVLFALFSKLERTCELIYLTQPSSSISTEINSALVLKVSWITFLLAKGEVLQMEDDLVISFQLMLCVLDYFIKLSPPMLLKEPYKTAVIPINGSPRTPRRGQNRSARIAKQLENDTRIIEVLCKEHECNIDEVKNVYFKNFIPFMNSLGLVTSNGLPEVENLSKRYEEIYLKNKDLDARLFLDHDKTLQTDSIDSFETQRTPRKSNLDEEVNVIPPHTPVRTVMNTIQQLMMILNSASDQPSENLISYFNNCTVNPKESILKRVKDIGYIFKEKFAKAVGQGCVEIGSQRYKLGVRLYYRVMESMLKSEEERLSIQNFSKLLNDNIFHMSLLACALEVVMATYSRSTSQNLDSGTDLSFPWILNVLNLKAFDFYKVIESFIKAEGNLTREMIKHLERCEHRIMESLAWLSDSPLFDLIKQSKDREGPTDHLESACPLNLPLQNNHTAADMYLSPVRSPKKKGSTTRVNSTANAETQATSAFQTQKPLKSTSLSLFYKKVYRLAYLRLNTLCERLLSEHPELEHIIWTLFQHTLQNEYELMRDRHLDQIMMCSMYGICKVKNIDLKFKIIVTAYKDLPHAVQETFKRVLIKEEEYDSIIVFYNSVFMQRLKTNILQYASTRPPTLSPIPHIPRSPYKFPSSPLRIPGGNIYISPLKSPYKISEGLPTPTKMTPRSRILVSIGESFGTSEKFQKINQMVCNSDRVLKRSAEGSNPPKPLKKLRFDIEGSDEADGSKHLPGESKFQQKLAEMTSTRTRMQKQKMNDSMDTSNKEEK
Test [12] addresses ERK1 (p44), human, Cell Signaling Technology 7416 (human) (UniProt P27361). As to the kind of experiment: RPA, competition: +free H3 peptide 1000 nM.
Test [13] has as its target Histone H3 recombinant protein, human, Upstate 14-494 (human) (UniProt P68431). As to the kind of experiment: RPA standard curve, assay 1, LOD back-calculated from one-site fit.
Test [14] addresses Histone H3-BSA 2.7x peptide-protein conjugate (bovine). The description is as above.
Test [15] has as its target ERK1 (p44) inactive (GST tagged), human, Invitrogen PV 3312 (human) (UniProt P27361). Described as above.
The target of test [16] is Erk1-BSA 2.7x peptide-protein conjugate (human; bovine). Described as above.
Test [17] addresses Histone H3 recombinant protein, human, Upstate 14-494 (human) (UniProt P68431). As to the kind of experiment: RPA, competition: +free Erk1 peptide 1000 nM.
The target of test [18] is Erk1-BSA 2.7x peptide-protein conjugate (human; bovine). As to the kind of experiment: RPA, competition: +free Erk1 peptide 1000 nM.
Test [19] concerns the target Histone H3 recombinant protein, calf, Roche 11 034 758 001 (calf) (UniProt P68432). As to the kind of experiment: RPA, competition: +free Erk1 peptide 1000 nM.
The target in test [20] is pRb recombinant protein, human, Active Motif 31 128 (human) (UniProt P06400). As to the kind of experiment: RPA, competition: +free Erk1 peptide 1000 nM.
Test [21] addresses pErk1/2-BSA 2.7x peptide-protein conjugate (human; bovine). As to the kind of experiment: RPA, 8 point dilution series of the peptide standard in buffer, assay 2.
For test [22] the target is unchanged. As to the kind of experiment: RPA standard curve, assay 1, LOD back-calculated from one-site fit.
Test [23] deals with ERK2 (p42), human, Biosource PHO 0104 (human) (UniProt P28482). As to the kind of experiment: RPA, competition: +free pErk1/2 peptide 1000 nM.
In test [24] the target is ERK1 (p44) active (GST tagged), human, Invitrogen PV 3311 (human) (UniProt P27361). As to the kind of experiment: RPA, competition: +free pErk1/2 peptide 1000 nM.
The target of test [25] is ERK1 (p44) inactive (GST tagged), human, Invitrogen PV 3312 (human) (UniProt P27361). As to the kind of experiment: RPA, competition: +free pErk1/2 peptide 1000 nM.
In test [26] the target is pRb-BSA 1x peptide-protein conjugate (bovine). As to the kind of experiment: RPA, competition: +free pErk1/2 peptide 1000 nM.
In test [27] the target is ERK1 (p42) active (phospho), human, Active Motif 31 152 (human) (UniProt P27361). As to the kind of experiment: RPA, competition: +free pErk1/2 peptide 1000 nM.
Test [28] addresses Histone H3 recombinant protein, human, Upstate 14-494 (human) (UniProt P68431). As to the kind of experiment: RPA, competition: +free pErk1/2 peptide 1000 nM.
For test [29], the target named is pErk1/2-BSA 2.7x peptide-protein conjugate (human; bovine). As to the kind of experiment: RPA, competition: +free pErk1/2 peptide 1000 nM.
Sequence of pErk1/2-BSA 2.7x peptide-protein conjugate (human; bovine) (P02769 25-607 limits assumed): as the sequence (P02769 25-607 limits assumed) above
Test [30] deals with Erk1-BSA 2.7x peptide-protein conjugate (human; bovine). As to the kind of experiment: RPA, competition: +free pErk1/2 peptide 1000 nM.
The target in test [31] is Histone H3-BSA 2.7x peptide-protein conjugate (bovine). As to the kind of experiment: RPA, competition: +free pErk1/2 peptide 1000 nM.
For test [32], the target named is Histone H3 recombinant protein, calf, Roche 11 034 758 001 (calf) (UniProt P68432). As to the kind of experiment: RPA, competition: +free pErk1/2 peptide 1000 nM.
In test [33] the target is pRb recombinant protein, human, Active Motif 31 128 (human) (UniProt P06400). As to the kind of experiment: RPA, competition: +free pErk1/2 peptide 1000 nM.
In test [34] the target is ERK1 (p44), human, Cell Signaling Technology 7416 (human) (UniProt P27361). As to the kind of experiment: RPA, competition: +free pErk1/2 peptide 1000 nM.
Test [35] concerns the target Histone H3 recombinant protein, human, Upstate 14-494 (human) (UniProt P68431). As to the kind of experiment: RPA, competition: +free pErk1/2 peptide 10 nM.
The target in test [36] is Histone H3 recombinant protein, calf, Roche 11 034 758 001 (calf) (UniProt P68432). As to the kind of experiment: RPA, competition: +free pErk1/2 peptide 10 nM.

Sequence of UniProt P28482 (P28482 2-360 limits assumed): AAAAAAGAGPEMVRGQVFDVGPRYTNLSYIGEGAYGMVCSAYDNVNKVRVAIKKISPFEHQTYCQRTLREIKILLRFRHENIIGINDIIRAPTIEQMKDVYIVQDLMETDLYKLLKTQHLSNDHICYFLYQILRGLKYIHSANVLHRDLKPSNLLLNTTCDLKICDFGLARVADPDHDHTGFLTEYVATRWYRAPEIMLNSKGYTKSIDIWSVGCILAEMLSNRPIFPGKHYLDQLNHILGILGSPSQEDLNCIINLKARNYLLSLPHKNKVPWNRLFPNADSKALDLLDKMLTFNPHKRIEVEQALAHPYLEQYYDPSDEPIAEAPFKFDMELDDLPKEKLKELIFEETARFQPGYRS

With Histone H3 antibody, Abcam ab1791, the maximum standard curve signal was less than 0.01 RFI in [1]; less than 0.01 RFI in test [2]; 0.01 RFI in [3]; less than 0.01 RFI in test [4]; less than 0.01 RFI in [5]; 1.13 RFI in test [6]. For the same substance, the maximum standard curve signal in test [7] was less than 0.01 RFI; in [8], less than 0.01 RFI; in test [9] it was 1.41 RFI; in test [10], 0.04 RFI; in test [11] it was less than 0.01 RFI; in test [12] it was less than 0.01 RFI. Moreover, the LOD was 0.133 nM in test [13] and 0.104 nM in [14].

Consider “p44/42 MAPK (Erk1/2) antibody, Biosource 44-654G”, for which the LOD in [15] is 0.059 nM; in test [16], 0.045 nM. The maximum standard curve signal turned out to be 0.01 RFI in [17], 0.14 RFI in test [18], 0.01 RFI in [19] and 0.01 RFI in test [20]. The mean signal (standard curve) in test [21] is 0.008 RFI.

Regarding “p44/42 MAPK phospho (pERK1/2) Thr202/Tyr204 antibody, Cell Signaling Technology #9101”, in test [22], the LOD is 0.028 nM. The maximum standard curve signal in test [23], in [24], in test [25], in test [26], in test [27] and in test [28] was 0.01 RFI each time. Besides, the maximum standard curve signal was 0.1 RFI in test [29]; 0.02 RFI in test [30]; 0.1 RFI in [31]; 0.01 RFI in [32]; 0.01 RFI in [33]; less than 0.01 RFI in [34]. The maximum standard curve signal in test [35] and in [36] was 0.01 RFI in each case.
